Columns and labels:
Test in all cases: cell-based or functional assay
[1] = biological target: HIV-1 envelope glycoprotein (Env) of isolate 94 KE 105, subtype AC (HIV-1)
[2] = biological target: HIV-1 envelope glycoprotein (Env) of isolate 92WR024, subtype A (HIV-1)
[3] = biological target: HIV-1 envelope glycoprotein (Env) of isolate MG RM-A-008, subtype A (HIV-1)
[4] = biological target: HIV-1 envelope glycoprotein (Env) of isolate VLGCA1, subtype A (HIV-1)
[5] = biological target: HIV-1 envelope glycoprotein (Env) of isolate VLGCB3, on pseudovirus (HIV-1)
[6] = biological target: HIV-1 envelope glycoprotein (Env) of isolate MG RM-AG-005 (HIV-1)
[7] = biological target: HIV-1 envelope glycoprotein (Env) of isolate MG RM-AG-012 (HIV-1)
[8] = biological target: HIV-1 Env of isolate MGRM-G-001 (subtype G) (HIV-1)
[9] = biological target: HIV-1 Env of isolate MG RM-A-005 (pseudovirus) (HIV-1)
[10] = biological target: HIV-1 Env of isolate MGRM-C-017 (subtype C), on pseudovirus (HIV-1)
[11] = biological target: HIV-1 Env of pseudovirus isolate 92BR020 (clade B) (HIV-1)
[12] = biological target: HIV-1 Env of isolate MGRM-AE-003 (pseudovirus) (HIV-1)
[13] = biological target: aMLV envelope (negative control pseudovirus) (aMLV)
[14] = biological target: HIV-1 Env of isolate MGRM-C-026 (subtype C), on pseudovirus (HIV-1)
[15] = biological target: HIV-1 Env of isolate MGRM-AE-001 (pseudovirus) (HIV-1)
[16] = biological target: HIV-1 JR-CSF Env P313A (HIV-1 (isolate JR-CSF, clade B)) (UniProt P20871)
[17] = biological target: HIV-1 JR-CSF Env L416A (HIV-1 (isolate JR-CSF)) (UniProt P20871)
[18] = biological target: HIV-1 Env of isolate MGRM-AG-011 (pseudovirus) (HIV-1)
[19] = biological target: HIV-1 JR-CSF Env N396A (HIV-1 (isolate JR-CSF)) (UniProt P20871)
[20] = biological target: HIV-1 Env of isolate MGRM-A-010 (subtype A) (HIV-1)
[21] = biological target: HIV-1 Env of isolate MGRM-AE-007 (subtype AE) (HIV-1)
[22] = biological target: HIV-1 Env of pseudovirus isolate MGRM-C-023 (clade C) (HIV-1)
[23] = biological target: HIV-1 Env of isolate MGRM-AE-001 (subtype AE) (HIV-1)
[24] = biological target: HIV-1 Env of isolate MGRM-C-001 (HIV-1)

Chain of 4995_E20 (PGT-142) (antibody) (VH): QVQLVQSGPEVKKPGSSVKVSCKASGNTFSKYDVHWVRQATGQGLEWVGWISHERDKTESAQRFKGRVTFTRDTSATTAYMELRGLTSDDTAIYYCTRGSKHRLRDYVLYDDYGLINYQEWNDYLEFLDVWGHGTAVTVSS
Chain of 4995_E20 (PGT-142) (antibody) (VL): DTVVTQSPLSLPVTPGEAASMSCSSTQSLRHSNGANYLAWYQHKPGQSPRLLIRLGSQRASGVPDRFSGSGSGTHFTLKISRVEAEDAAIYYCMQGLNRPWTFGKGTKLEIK
Chain of 5345_I01 (PGT-137) (antibody) (VH): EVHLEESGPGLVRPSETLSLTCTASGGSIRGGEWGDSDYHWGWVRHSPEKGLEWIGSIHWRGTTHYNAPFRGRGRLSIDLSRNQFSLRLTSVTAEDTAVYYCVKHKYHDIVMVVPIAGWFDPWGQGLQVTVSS
Chain of 5345_I01 (PGT-137) (antibody) (VL): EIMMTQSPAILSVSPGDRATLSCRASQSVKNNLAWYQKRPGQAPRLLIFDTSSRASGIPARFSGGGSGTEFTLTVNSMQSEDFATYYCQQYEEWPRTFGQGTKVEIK
Chain of 4995_P16 (PGT-145) (antibody) (VH): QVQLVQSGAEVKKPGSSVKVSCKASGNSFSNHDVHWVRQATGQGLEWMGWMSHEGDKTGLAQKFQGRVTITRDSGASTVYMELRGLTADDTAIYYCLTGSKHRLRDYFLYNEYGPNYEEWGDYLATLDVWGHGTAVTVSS
Chain of 4995_P16 (PGT-145) (antibody) (VL): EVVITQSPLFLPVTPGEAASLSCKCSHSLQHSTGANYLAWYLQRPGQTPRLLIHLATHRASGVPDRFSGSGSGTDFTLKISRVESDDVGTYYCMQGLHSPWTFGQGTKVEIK
Chain of PGT-141 (4964_G22; 4993_K13) (antibody) (VH): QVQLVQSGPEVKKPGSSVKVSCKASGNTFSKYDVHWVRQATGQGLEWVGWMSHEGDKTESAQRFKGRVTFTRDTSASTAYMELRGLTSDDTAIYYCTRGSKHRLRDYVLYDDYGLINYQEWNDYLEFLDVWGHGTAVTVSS
Chain of PGT-144 (4970_K22) (antibody) (VH): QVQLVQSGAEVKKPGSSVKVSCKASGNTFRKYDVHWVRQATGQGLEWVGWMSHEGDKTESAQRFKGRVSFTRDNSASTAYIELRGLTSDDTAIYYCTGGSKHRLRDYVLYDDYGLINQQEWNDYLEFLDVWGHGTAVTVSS
Chain of PGT-144 (4970_K22) (antibody) (VL): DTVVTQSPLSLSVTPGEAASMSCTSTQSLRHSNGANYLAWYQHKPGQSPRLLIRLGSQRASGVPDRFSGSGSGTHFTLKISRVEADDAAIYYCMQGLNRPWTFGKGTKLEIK

4838_L06 (PGT-121) (antibody) was tested, and the IC50, pseudovirus neutralization [1] was 0.029 µg/mL, the IC50, pseudovirus neutralization [2] was > 50 µg/mL and the IC50, pseudovirus neutralization [3] was > 50 µg/mL. The IC50, pseudovirus neutralization [4] was > 50 µg/mL and the IC50, pseudovirus neutralization [5] was 0.005 µg/mL.
PGT-141 (4964_G22; 4993_K13) (antibody) was tested, and the IC50 [6] was 0.497 µg/mL and the IC50 [7] was > 50 µg/mL.
PGT-145 (4995_P16) (antibody) was tested, and the IC50 [6] was 0.045 µg/mL and the IC50 [7] was > 50 µg/mL.
For VRC01 (antibody), the IC50 (µg/mL), pseudovirus neutralization [8] was 0.0371 µg/mL, the IC50 (µg/mL), single-round pseudovirus neutralization [9] was 0.095 µg/mL and the IC50, single-round pseudovirus neutralization [10] was 0.366 µg/mL. The IC50, pseudovirus neutralization [11] was 0.29 µg/mL, the IC50 (µg/mL), single-round pseudovirus neutralization [12] was 0.685 µg/mL and the IC50 (µg/mL), pseudovirus neutralization [13] was > 50 µg/mL. The IC50 [6] was 0.091 µg/mL, the IC50 [7] was 0.031 µg/mL and the IC50, single-round pseudovirus neutralization [14] was 0.707 µg/mL. The IC50 (µg/mL), single-round pseudovirus neutralization [15] was 0.167 µg/mL.
4995_P16 (PGT-145) (antibody) was tested, and the IC50 (µg/mL), pseudovirus neutralization [8] was 0.028 µg/mL, the IC50 (µg/mL), single-round pseudovirus neutralization [9] was 0.128 µg/mL and the IC50, single-round pseudovirus neutralization [10] was > 50 µg/mL. The IC50, pseudovirus neutralization [11] was 1.05 µg/mL, the IC50 (µg/mL), single-round pseudovirus neutralization [12] was 0.552 µg/mL and the IC50 (µg/mL), pseudovirus neutralization [13] was > 50 µg/mL. The IC50, single-round pseudovirus neutralization [14] was > 50 µg/mL and the IC50 (µg/mL), single-round pseudovirus neutralization [15] was 20.9 µg/mL.
5141_B17 (PGT-126) (antibody) was tested, and the Fold IC50 increase relative to wild-type [16] was 0.4 fold, the IC50, pseudovirus neutralization [1] was 0.006 µg/mL and the Fold IC50 increase relative to wild-type (pseudovirus neutralization) [17] was 0.8 fold. For the same substance, the IC50 (µg/mL), pseudovirus neutralization [18] was 24.5 µg/mL, the IC50, pseudovirus neutralization [2] was 42 µg/mL and the IC50, pseudovirus neutralization [3] was > 50 µg/mL. For the same substance, the IC50, pseudovirus neutralization [4] was > 50 µg/mL, the Fold IC50 increase relative to wild-type (pseudovirus neutralization) [19] was 1.7 fold and the IC50, pseudovirus neutralization [5] was 0.007 µg/mL.
For 4877_D15 (PGT-122) (antibody), the IC50, pseudovirus neutralization [1] was 0.056 µg/mL, the IC50 (µg/mL), pseudovirus neutralization [18] was > 50 µg/mL and the IC50, pseudovirus neutralization [2] was > 50 µg/mL. The IC50, pseudovirus neutralization [3] was > 50 µg/mL, the IC50, pseudovirus neutralization [4] was > 50 µg/mL and the IC50, pseudovirus neutralization [5] was 0.008 µg/mL.
For PGT-144 (4970_K22) (antibody), the IC50 [6] was > 50 µg/mL and the IC50 [7] was > 50 µg/mL.
With 5345_I01 (PGT-137) (antibody) the IC50, pseudovirus neutralization [20] was > 50 µg/mL, the IC50, pseudovirus neutralization [21] was > 50 µg/mL and the IC50, pseudovirus neutralization [22] was 0.23 µg/mL. The IC50, pseudovirus neutralization [23] was > 50 µg/mL and the IC50 (µg/mL), pseudovirus neutralization [24] was 21.5 µg/mL.
Substance 4995_E20 (PGT-142) (antibody) has an IC50 (µg/mL), pseudovirus neutralization [8] of 0.362 µg/mL, an IC50 (µg/mL), single-round pseudovirus neutralization [9] of 9.7 µg/mL and an IC50, single-round pseudovirus neutralization [10] of 1.11 µg/mL. The IC50, pseudovirus neutralization [11] was 15.1 µg/mL, the IC50 (µg/mL), single-round pseudovirus neutralization [12] was > 50 µg/mL and the IC50 (µg/mL), pseudovirus neutralization [13] was > 50 µg/mL. For the same substance, the IC50, single-round pseudovirus neutralization [14] was > 50 µg/mL and the IC50 (µg/mL), single-round pseudovirus neutralization [15] was > 50 µg/mL.
With 5114_A19 (PGT-128) (antibody) the IC50, pseudovirus neutralization [20] was 0.005 µg/mL, the Fold IC50 increase relative to wild-type (pseudovirus neutralization) [17] was 1.1 fold and the IC50, pseudovirus neutralization [21] was > 50 µg/mL. The IC50, pseudovirus neutralization [22] was 0.026 µg/mL, the IC50, pseudovirus neutralization [23] was 0.069 µg/mL and the Fold IC50 increase relative to wild-type (pseudovirus neutralization) [19] was 0.9 fold. The IC50 (µg/mL), pseudovirus neutralization [24] was > 50 µg/mL.

Reference: patent publication US20240132578A1
